We go through 2 molecules from patent publication US6432692 (WISCONSIN ALUMNI RESEARCH FOUNDATION, dated 2002).

For one test, the target named is T1, Hsp90.
T1 construct: also called radiolabeled Hsp90; 35S labeled Hsp90
Nature of the test: co-immunoprecipitation of 35S labeled Hsp90 with T7-agarose, bands quantified with a phosphoimager. The procedure: (§1) The bacterial expression of FKBP52 and ARA9 was confirmed by SDS-PAGE followed by both Coomassie stain and western blot analysis with an anti-T7 peptide antibody (Novagen). Immunoprecipitations of complexes with either AHR- or Hsp90 were performed in MENG buffer as above, using anti-T7 agarose (Novagen). The complexes were then precipitated and analyzed by SDS-PAGE and autoradiography.
(§2) Figure 3A: FIG. 3A (Top). AHR was translated in reticulocyte lysates in the presence of ^35S-methionine. Labeled proteins were then incubated in the presence of T7 tagged ARA9, T7 tagged FKBP52 or untransformed BL21 extract and complexes were separated and visualized as above. "Input" lanes represent 25% of total protein (AHR or Hsp90) used in experiments. Bottom: The bands radioactivity present in the AHR or Hsp90 bands was quantified using a phosphoimager to make comparisons of relative coimmunoprecipitation. The bars represent the means from three independent experiments. The error bars indicate the standard error of the mean. Figure 3B: FIG. 3B. Hsp90 was used in a similar experiment described in FIG. 3A.
(§3) Specificity of ARA9 for AHR: The structural similarity between ARA9 and FKBP52 led us to compare the relative capacity of these two factors to bind AHR. […] The AHR-ARA9 or AHR-FKBP52 associations were determined by coimmunoprecipitation with T7-agarose. […]

In test [1] the target is T2, full length aryl hydrocarbon receptor (AHR) translated in reticulocyte lysate (pSportAHR) (UniProt P30561 1-805, limits assumed).
T2 construct: also called Ah receptor; radiolabeled AHR
T2 sequence (looked up): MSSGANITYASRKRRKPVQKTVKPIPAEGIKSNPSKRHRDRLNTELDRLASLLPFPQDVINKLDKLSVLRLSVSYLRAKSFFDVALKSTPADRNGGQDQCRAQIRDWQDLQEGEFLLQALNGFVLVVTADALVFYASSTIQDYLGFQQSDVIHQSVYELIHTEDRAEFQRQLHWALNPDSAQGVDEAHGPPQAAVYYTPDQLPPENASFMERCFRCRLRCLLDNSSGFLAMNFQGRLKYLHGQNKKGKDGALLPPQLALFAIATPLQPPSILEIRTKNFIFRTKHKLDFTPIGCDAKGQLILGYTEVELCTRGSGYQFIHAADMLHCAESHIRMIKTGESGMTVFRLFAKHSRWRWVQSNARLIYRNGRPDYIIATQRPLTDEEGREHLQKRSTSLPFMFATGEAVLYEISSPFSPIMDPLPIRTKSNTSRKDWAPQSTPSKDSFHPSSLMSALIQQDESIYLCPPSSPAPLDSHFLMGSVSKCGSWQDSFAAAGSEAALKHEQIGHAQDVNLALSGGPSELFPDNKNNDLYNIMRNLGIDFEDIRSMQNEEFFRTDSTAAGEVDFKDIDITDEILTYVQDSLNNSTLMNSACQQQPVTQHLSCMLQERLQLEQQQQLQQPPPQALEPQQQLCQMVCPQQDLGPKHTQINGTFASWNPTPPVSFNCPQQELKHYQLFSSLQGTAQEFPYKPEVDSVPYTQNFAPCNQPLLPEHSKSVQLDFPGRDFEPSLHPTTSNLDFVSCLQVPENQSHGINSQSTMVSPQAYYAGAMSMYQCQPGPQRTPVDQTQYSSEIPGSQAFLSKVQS
Nature of the test: co-immunoprecipitation of 35S-labeled AHR with T7-agarose, bands quantified with a phosphoimager. As for the experimental part: as §1, §2, §3

B1: T7 tagged FKBP52 expressed in bacteria (pET17b-FKBP52, PL947) (other)
chain: MASMTGGQQMGMTAEEMKAAESGAQSAPLPLEGVDISPKQDEGVLKVIKREGTGTETPMIGDRVFVHYTGWLLDGTKFDSSLDRKDKFSFDLGKGEVIKAWDIAVATMKVGELCRITCKPEYAYGSAGSPPKIPPNATLVFEVELFEFKGEDLTDDEDGGIIRRIRTRGEGYARPNDGAIVEVALEGYYKDRLFDQRELRFEVGEGESLDLPCGLEKAIQRMEKGEHSILYLKPSYAFGNAGKEKFQIPPYAELKYEVHLKSFEKAKESWEMSSEEKLEQSAIVKERGTVYFKEGKYKQALLQYKKIVSWLEYESSFSSEEVQKAQALRLASHLNLAMCHLKLQAFSAAVESCNKALELDSNNEKGLFRRGEAHLAVNDFDLARADFQKVLQLYPSNKAAKAQLAVCQQRIRKQIAREKKLYANMFERLAEEENKAKAEVAAGDHPMDTEMKDERNDVAGSQSQVETEA
On to B1, for which the “capacity to interact with Hsp90 relative to ARA9” value in the test with Hsp90 was found to be 4 fold.

B2: T7 tagged full length ARA9 expressed in bacteria (pET17b-ARA9, PL799) (other)
chain: MASMTGGQQMGMADIIARLREDGIQKRVIQEGRGELPDFQDGTKATFHYRTLHSDDEGTVLDDSRARGKPMELIIGKKFKLPVWETIVCTMREGEIAQFLCDIKHVVLYPLVAKSLRNIAVGKDPLEGQRHCCGVAQMREHSSLGHADLDALQQNPQPLIFHMEMLKVESPGTYQQDPWAMTDEEKAKAVPLIHQEGNRLYREGHVKEAAAKYYDAIACLKNLQMKEQPGSPEWIQLDQQITPLLLNYCQCKLVVEEYYEVLDHCSSILNKYDDNVKAYFKRGKAHAAVWNAQEAQADFAKVLELDPALAPVVSRELRALEARIRQKDEEDKARFRGIFSH
notes: Expressed in BL21(DE3); also called T7-tagged ARA9; FL
For B2, the “efficiency at precipitating AHR relative to FKBP52” value in test [1] was around 4 times.
